The values below come from patent publication US20110223188A1, “TARGETED COSTIMULATORY POLYPEPTIDES AND METHODS OF USE TO TREAT CANCER” (priority 2008, published 2011).

The test system of assay [1] is Treg; CD4+ T cells expressing high PD-1. The assay is described as follows: T cell analysis (Treg, PD-1+/CD4+ T cells) in CT26 tumor-bearing mice. In kind it is in vivo, Balb/C mice. As to the method: On Day 9, mice were injected with 100 mg/kg of CTX, IP. Twenty four hours later, on Day 10, mice were treated with 100 ug of 137-DC-Ig. […] Two naïve mice and 4 mice from other groups were removed from the study on Day 11 (2 days post CTX) and Day 16 (7 days post CTX) for T cell analysis. […] Mice implanted with tumor cells intended to have more PD-1+/CD4+ T cells in the draining LN compared with naïve mice.
On Day 9, mice were injected with 100 mg/kg of CTX, IP. […] Two naïve mice and 4 mice from other groups were removed from the study on Day 11 (2 days post CTX) and Day 16 (7 days post CTX) for T cell analysis. […] Mice implanted with tumor cells intended to have more PD-1+/CD4+ T cells in the draining LN compared with naïve mice.

Assay [2] relates to SP-1 mouse prostate tumor cells. The assay is described as follows: Metastatic prostate lung tumor model (SP-1), survival. It is filed as in vivo, B10.D2 mice. Particulars: CTX 50 mg/kg Day 5, 12, 19; B7-DC-Ig 5 mg/kg Day 6, 13, 20. As to the method: SP-1 cells were isolated from mouse lungs that were metastasized from. TRAMP prostate tumor cell injection. B10.D2 mice were first injected with 3×10^5 SP-1 cells via tail vein injection. On Day 5, 12 and 19, mice were injected with 50 mg/kg of CTX where was indicated. […] Here, “NT” refers to “not treated”.
The CTX mice received 3 doses of CTX, 50 mg/kg, on Day 5, 12 and 19.

The subject of assay [3] is CT26 colorectal tumor cells. Description: Established CT26 colorectal tumor model (subcutaneous). Particulars: CTX 100 mg/kg on day 10 alone.
Source text: Balb/C mice at age of 9 to 11 weeks were implanted subcutaneously with 1.0×10^5 CT26 colorectal tumor cells.
In assay [4] the test system is P815 mastocytoma. The assay is described as follows: P815 mastocytoma tumor model. In kind it is in vivo, DBA/2 mice. Here is the method:
P815 mastocytoma cells were derived from DBA/2 mice after methylcholanthrene (MCA) treatment. Injection of 5×10^4 cells SC can result in mortality approximately 35 days post tumor inoculation.
DBA/2 mice (6-10 weeks of age, females) were first challenged with 5×10^4 live P815 cells injected SC in the flank. Six days later, the mice were treated with murine B7-DC-Ig via IP injection. […] Control groups were treated with vehicle only or with murine IgG. Tumor size was measured with digital calipers every 2-3 days. Mice were euthanized and defined as dead when their tumor size reached or exceeded 1000 mm^3, according to protocols approved by the Institutional Animal Care and Use Committee (IACUC) of the American Red Cross (ARC; the site of Amplimmune's vivarium). Surviving tumor free mice were re-challenged with P815 tumor cells on Day 52.
The tumor-free mice were then re-challenged with 5×10^4P815 cells administered to the flank opposite the primary inoculation site on Day 52.

Setting [5] is: number of mice, 5 per group, P815 cells SC, treatment IP biw 3 weeks starting Day 6.

For `O=P1(N(CCCl)CCCl)NCCCO1` (stereo not drawn) [CTX, cyclophosphamide, reference compound], the “Treg in the spleen vs tumor-implanted vehicle-injected mice” value in assay [1] (Day 11, 2 days post CTX 100 mg/kg IP) was “significantly lower”. Further, in assay [2], the “mice survived on Day 100” value is on record as 17%. In addition, the “outcome of mice (tumor growth/survival)” value in assay [3] is listed as “died as a result of tumor growth or were euthanized”.

B1: Murine B7-DC-Ig: murine B7-DC fusion protein: B7-DC extracellular domain fused to murine immunoglobulin Cγ2a hinge, CH2, CH3 (likely SEQ ID NO:80/81) (protein)
chain: MLLLLPILNLSLQLHPVAALFTVTAPKEVYTVDVGSSVSLECDFDRRECTELEGIRASLQKVENDTSLQSERATLLEEQLPLGKALFHIPSVQVRDSGQYRCLVICGAAWDYKYLTVKVKASYMRIDTRILEVPGTGEVQLTCQARGYPLAEVSWQNVSVPANTSHIRTPEGLYQVTSVLRLKPQPSRNFSCMFWNAHMKELTSAIIDPLSRMEPKVPRTWEPRGPTIKPCPPCKCPAPNLLGGPSVFIFPPKIKDVLMISLSPIVTCVVVDVSEDDPDVQISWFVNNVEVHTAQTQTHREDYNSTLRVVSALPIQHQDWMSGKEFKCKVNNKDLPAPIERTISKPKGSVRAPQVYVLPPPEEEMTKKQVTLTCMVTDFMPEDIYVEWTNNGKTELNYKNTEPVLDSDGSYFMYSKLRVEKKNWVERNSYSCSVVHEGLHNHHTTKSFSRTPGK
modifications: Synthetic murine B7-DC fusion protein with signal peptide
Regarding B1, the “mice responded to treatment” value in assay [4] (100 μg per injection (approximately 5 mg/kg) IP, 2 times per week, up to 6 doses) is “Four of 5”. In assay [4] (setting [5]), the “# Tumor <500 mm^3” value was 2, the “# Tumor free” value is 2 and the “# Tumor ≧500 mm^3” value is recorded as 1. Besides, in assay [4] (of 5 treated mice), the “mice in which tumor was eradicated” value is on record as “two” and the “mice showing delayed tumor growth during treatment” value is reported as “two”. Besides, the “tumor status after re-challenge with P815 cells on Day 52” value in assay [4] (tumor-free mice re-challenged on opposite flank, followed through 74 days after primary inoculation) is “remained tumor free”. In assay [1] (Day 16, 7 days post CTX and 6 days post B7-DC-Ig 100 ug), the “CD4+ T cells expressing high PD-1” value is listed as “significantly lowered”. For the same molecule, in assay [2], the “mice survived on Day 100” value came out at 17%.
